Patent US20200325187A1 (Genentech, published 2020)
Like-named read-outs stand apart in the source and are kept apart here.

How the values were obtained:
Assay in all cases: spot phage ELISA
hVEGF-A (8-109) [1] = target: T1, hVEGF-A (8-109) (human, UniProt P15692 214-315)
T1 sequence (looked up): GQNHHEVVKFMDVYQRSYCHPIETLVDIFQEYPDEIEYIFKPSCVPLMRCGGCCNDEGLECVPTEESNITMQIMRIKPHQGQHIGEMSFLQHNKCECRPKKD
Experimental: (§1) After four rounds of binding selection, individual phage clones were picked and inoculated into 450 μl 2YT media containing 50 µg/ml Carbenecillin and M13-KO7 helper phage in 96-well blocks, which were grown at 37° C. overnight. […] The plates were washed and bound phage was detected with anti-M13-HRP followed by TMB substrate. In these assays, phage binding to BSA alone was tested in parallel to assess background binding. […] Positive clones were subjected to DNA sequence analysis.

hVEGF-A (8-109) [2] = target: T1, hVEGF-A (8-109); remark: listed apart in the source
Experimental: as §1

LRP6 E1E2 protein = target: T2, LRP6 E1E2 protein (human, UniProt O75581 20-630, limits assumed); for ELISA: unit not given here
T2 construct: domain: E1E2
T2 sequence (looked up): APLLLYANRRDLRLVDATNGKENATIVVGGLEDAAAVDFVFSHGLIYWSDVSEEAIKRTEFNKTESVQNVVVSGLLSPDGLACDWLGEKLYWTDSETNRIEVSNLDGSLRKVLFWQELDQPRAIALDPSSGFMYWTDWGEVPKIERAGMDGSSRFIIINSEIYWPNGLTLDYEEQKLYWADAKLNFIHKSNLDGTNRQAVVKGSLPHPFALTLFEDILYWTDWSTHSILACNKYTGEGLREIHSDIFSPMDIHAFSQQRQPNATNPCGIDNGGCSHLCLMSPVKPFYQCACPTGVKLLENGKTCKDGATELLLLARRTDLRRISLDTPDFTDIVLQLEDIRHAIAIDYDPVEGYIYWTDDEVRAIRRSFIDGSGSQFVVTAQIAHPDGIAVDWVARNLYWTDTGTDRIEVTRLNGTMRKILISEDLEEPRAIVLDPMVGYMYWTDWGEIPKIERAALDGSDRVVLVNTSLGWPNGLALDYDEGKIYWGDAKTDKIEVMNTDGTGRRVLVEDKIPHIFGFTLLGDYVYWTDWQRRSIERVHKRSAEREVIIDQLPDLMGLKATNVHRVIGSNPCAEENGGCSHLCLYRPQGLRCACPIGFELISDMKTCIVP

## GCNIMLPFWGCSRDFDCLAGCVCQYYQSCG (designed binder) [VEGF_CKP9.54.44]
hVEGF-A (8-109) [1]
  ELISA: 2.4
  S/N vs BSA: 34.4

## GCNIMLPFWGCNRDFLCLAGCVCQYYQSCG (designed binder) [VEGF_CKP9.54.48]
hVEGF-A (8-109) [1]
  ELISA: 2.5
  S/N vs BSA: 34.9

## GCNIMLPFWGCGWDQFCLAGCVCQYYQSCG (designed binder) [VEGF_CKP9.54.51]
hVEGF-A (8-109) [1]
  ELISA: 2.5
  S/N vs BSA: 44.5

## GCNIMLPFWGCGKDFHCLAGCVCQYYQSCG (designed binder) [VEGF_CKP9.54.56]
hVEGF-A (8-109) [1]
  ELISA: 2.3
  S/N vs BSA: 35.8

## GCNIMLPFWGCSGDFACLAGCVCQYYQSCG (designed binder) [VEGF_CKP9.54.64]
hVEGF-A (8-109) [1]
  ELISA: 2.2
  S/N vs BSA: 22.4

## GCNIMLPFWGCGKELNCLAGCVCQYYQSCG (designed binder) [VEGF_CKP9.54.69]
hVEGF-A (8-109) [1]
  ELISA: 2.5
  S/N vs BSA: 21.7

## GCNIMLPFWGCGWSMDCLAGCVCQYYQSCG (designed binder) [VEGF_CKP9.54.76]
hVEGF-A (8-109) [1]
  ELISA: 2.7
  S/N vs BSA: 42.2

## GCNIMLPFWGCGYDLQCLAGCVCQYYQSCG (designed binder) [VEGF_CKP9.54.87]
hVEGF-A (8-109) [1]
  ELISA: 2.4
  S/N vs BSA: 26.1

## GCQLMQPFWGCKQDSDCLAGCVCRWYNSCG (designed binder) [VEGF_CKP9.L5.7]
hVEGF-A (8-109) [1]
  ELISA: 1.4
  S/N vs BSA: 18.9

## GCQLMQPFWGCKQDSDCLAGCVCRWYHSCG (designed binder) [VEGF_CKP9.L5.43]
hVEGF-A (8-109) [1]
  ELISA: 0.9
  S/N vs BSA: 13.6

## GCPRILMRCKQDSDCLAGCVCGPNGFCG (also called wild type EETI-II) [EETI-II]
hVEGF-A (8-109) [1]
  ELISA: 0.01
  S/N vs BSA: 1.11

## GCKKWQWWYMCKQDSDCLAGCVCYPWTECG (designed binder) [VEGF_CKP4]
hVEGF-A (8-109) [1]
  ELISA: 2.6
  S/N vs BSA: 35.3

## GCPAIQNWKEHPCKQDSDCLAGCVCSWWPSLCG (designed binder) [VEGF_CKP5]
hVEGF-A (8-109) [1]
  ELISA: 1.9
  S/N vs BSA: 28.4

## GCQDPTVNWAVYCKQDSDCLAGCVCQFYQSCG (designed binder) [VEGF_CKP7.17]
hVEGF-A (8-109) [2]
  ELISA: 0.8
  S/N vs BSA: 13.4

## GCQDPTFNWAEYCKQDSDCLAGCVCQLYQSCG (designed binder) [VEGF_CKP7.19]
hVEGF-A (8-109) [2]
  ELISA: 0.6
  S/N vs BSA: 11.1

## GCWDPTFNWALYCKQDSDCLAGCVCQMYDSCG (designed binder) [VEGF_CKP7.24]
hVEGF-A (8-109) [2]
  ELISA: 0.8
  S/N vs BSA: 13.4

## GCQDPTFNWAEYCKQDSDCLAGCVCQMYQSCG (designed binder) [VEGF_CKP7.35]
hVEGF-A (8-109) [2]
  ELISA: 0.6
  S/N vs BSA: 10.6

## GCQDPTLNWATYCKQDSDCLAGCVCQMYQSCG (designed binder) [VEGF_CKP7.43]
hVEGF-A (8-109) [2]
  ELISA: 0.5
  S/N vs BSA: 6.3

## GCQDPSLNWADYCKQDSDCLAGCVCQMHQSCG (designed binder) [VEGF_CKP7.50]
hVEGF-A (8-109) [2]
  ELISA: 0.8
  S/N vs BSA: 14.3

## GCLDPSFNWSLYCKQDSDCLAGCVCQMYDSCG (designed binder) [VEGF_CKP7.57]
hVEGF-A (8-109) [2]
  ELISA: 1
  S/N vs BSA: 17.4

## GCETDWYPHQIDCKQDSDCLAGCVCGPNGFCG (designed binder) [VEGF_CKP1]
hVEGF-A (8-109) [1]
  ELISA: 0.9
  S/N vs BSA: 16.9

## GCDDPSFDWSVYCKQDSDCLAGCVCRMYDSCG (designed binder) [VEGF_CKP7.2]
hVEGF-A (8-109) [2]
  ELISA: 1.2
  S/N vs BSA: 21.5

## GCKNPLFNWALYCKQDSDCLAGCVCQLFDSCG (designed binder) [VEGF_CKP7.8]
hVEGF-A (8-109) [2]
  ELISA: 0.5
  S/N vs BSA: 7.5

## GCGETVFEQFLWCKQDSDCLAGCVCGPNGFCG (designed binder) [VEGF_CKP2]
hVEGF-A (8-109) [1]
  ELISA: 3.2
  S/N vs BSA: 48.1

## GCEDPTVDWAQYCKQDSDCLAGCVCQMYQSCG (designed binder) [VEGF_CKP7.46]
hVEGF-A (8-109) [2]
  ELISA: 0.3
  S/N vs BSA: 4.9

## GCRTNRVKGGCKQDSDCLAGCVCGPNGFCG (designed binder) [LRP6_CKP1]
LRP6 E1E2 protein
  ELISA: 3.23
  S/N vs BSA: 45.5

## GCRANRVSGRCKQDSDCLAGCVCGPNGFCG (designed binder) [LRP6_CKP18]
LRP6 E1E2 protein
  ELISA: 1.67
  S/N vs BSA: 18.3

## GCVNRVRGCKQDSDCLAGCVCSGGRDCG (designed binder) [LRP6_CKP2]
LRP6 E1E2 protein
  ELISA: 3.41
  S/N vs BSA: 41.6

## GCMNHVKARRCKQDSDCLAGCVCGPNGFCG (designed binder) [LRP6_CKP3]
LRP6 E1E2 protein
  ELISA: 2.93
  S/N vs BSA: 40.2

## GCRSVNKICKQDSDCLAGCVCGSSRNCG (designed binder) [LRP6_CKP4]
LRP6 E1E2 protein
  ELISA: 2.82
  S/N vs BSA: 25.4

## GCVNKIKGCKQDSDCLAGCVCGVEGRCG (designed binder) [LRP6_CKP5]
LRP6 E1E2 protein
  ELISA: 3.04
  S/N vs BSA: 35.7

## GCVSNRVNKGCKQDSDCLAGCVCGPNGFCG (designed binder) [LRP6_CKP7]
LRP6 E1E2 protein
  ELISA: 3.3
  S/N vs BSA: 29

## GCRGNIIKCKQDSDCLAGCVCNESRGCG (designed binder) [LRP6_CKP8]
LRP6 E1E2 protein
  ELISA: 3.23
  S/N vs BSA: 37.6

## GCRSGNTIRKRECKQDSDCLAGCVCGGPGGCG (designed binder) [LRP6_CKP9]
LRP6 E1E2 protein
  ELISA: 2.97
  S/N vs BSA: 37.6

## GCASSNSIRQGWCKQDSDCLAGCVCGPKSNCG (designed binder) [LRP6_CKP10]
LRP6 E1E2 protein
  ELISA: 3.29
  S/N vs BSA: 37.4

## GCRSNRIRCKQDSDCLAGCVCYGHGDCG (designed binder) [LRP6_CKP11]
LRP6 E1E2 protein
  ELISA: 2.65
  S/N vs BSA: 36.8

## GCRSNKLREARGCKQDSDCLAGCVCGSRQDCG (designed binder) [LRP6_CKP12]
LRP6 E1E2 protein
  ELISA: 0.6
  S/N vs BSA: 6.78

## GCVNSVKRCKQDSDCLAGCVCSRGVNCG (designed binder) [LRP6_CKP13]
LRP6 E1E2 protein
  ELISA: 3.28
  S/N vs BSA: 37.8

## GCGSNKIRPRCKQDSDCLAGCVCGPNDFCG (designed binder) [LRP6_CKP14]
LRP6 E1E2 protein
  ELISA: 3.18
  S/N vs BSA: 43.5

## GCNRIRNSCKQDSDCLAGCVCGRGDYCG (designed binder) [LRP6_CKP15]
LRP6 E1E2 protein
  ELISA: 2.03
  S/N vs BSA: 26.3

## GCSRNSIKCKQDSDCLAGCVCASGSSCG (designed binder) [LRP6_CKP16]
LRP6 E1E2 protein
  ELISA: 3.36
  S/N vs BSA: 31.1

## GCSNYVKRCKQDSDCLAGCVCSPGGRCG (designed binder) [LRP6_CKP17]
LRP6 E1E2 protein
  ELISA: 3.09
  S/N vs BSA: 35.9

## GCENRTKGCKQDSDCLAGCVCGFRGTCG (designed binder) [LRP6_CKP20]
LRP6 E1E2 protein
  ELISA: 3.1
  S/N vs BSA: 38.7

## GCGNKIRACKQDSDCLAGCVCRDRVGCG (designed binder) [LRP6_CKP21]
LRP6 E1E2 protein
  ELISA: 2.8
  S/N vs BSA: 33.7

## GCANRVKRTSCKQDSDCLAGCVCGPNGFCG (designed binder) [LRP6_CKP22]
LRP6 E1E2 protein
  ELISA: 3.43
  S/N vs BSA: 42.9

## GCHMMYDYCKQDSDCLAGCVCEMYDACG (designed binder) [VEGF_CKP3]
hVEGF-A (8-109) [1]
  ELISA: 3.1
  S/N vs BSA: 42.9
